Target: T1, TLR7-Fc (toll-like receptor 7 ectodomain fused to human Fc) (UniProt Q9NYK1 27-839)
T1 sequence: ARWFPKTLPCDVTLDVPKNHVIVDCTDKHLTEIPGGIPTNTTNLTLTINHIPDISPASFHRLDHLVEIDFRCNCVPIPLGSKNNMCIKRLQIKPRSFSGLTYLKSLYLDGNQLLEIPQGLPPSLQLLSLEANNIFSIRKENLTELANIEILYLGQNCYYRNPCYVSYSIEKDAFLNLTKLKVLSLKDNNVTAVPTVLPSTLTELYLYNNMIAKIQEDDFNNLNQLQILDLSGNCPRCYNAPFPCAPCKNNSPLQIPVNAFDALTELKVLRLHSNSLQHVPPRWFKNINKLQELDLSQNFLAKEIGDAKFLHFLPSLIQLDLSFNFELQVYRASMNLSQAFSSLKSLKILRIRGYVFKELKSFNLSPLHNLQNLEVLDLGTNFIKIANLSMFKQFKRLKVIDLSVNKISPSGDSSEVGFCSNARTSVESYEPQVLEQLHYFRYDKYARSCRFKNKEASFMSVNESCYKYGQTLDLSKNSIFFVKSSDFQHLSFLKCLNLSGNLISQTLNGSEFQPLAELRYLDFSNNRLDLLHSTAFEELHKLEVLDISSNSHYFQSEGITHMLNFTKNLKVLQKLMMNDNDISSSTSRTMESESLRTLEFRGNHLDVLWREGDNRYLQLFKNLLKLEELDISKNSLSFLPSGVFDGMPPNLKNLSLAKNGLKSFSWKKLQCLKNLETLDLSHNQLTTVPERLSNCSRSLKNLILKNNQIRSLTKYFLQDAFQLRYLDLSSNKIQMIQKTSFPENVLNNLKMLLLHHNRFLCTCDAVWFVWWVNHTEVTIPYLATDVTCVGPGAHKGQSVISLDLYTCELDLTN
Assay: competition

GUCUUCAAAACUAGGUCGUUUUAGA (ssRNA, 5' phosphate; 3' biotin) [competitor ssRNA]
binding result: binds

Reference: doi:10.1101/2024.07.23.604836
